The assay concerns the target KRAS, mGppNHp-bound (human) (UniProt P01116). Put plainly: fluorescence polarisation; MBP-tagged effector domain (0.05-100 μM) titrated to 1 μM RAS-mGppNHp; 50 mM Tris/HCl pH 7.5, 100 mM NaCl, 5 mM MgCl2, 3 mM dithiothreitol, 25°C; quadratic ligand binding equation.

B1: RAS association (RA) domain of RASSF5, MBP fusion (domain or fragment)
chain: EETQRPPTLQEIKQKIDSYNTREKNCLGMKLSEDGTYTGFIKVHLKLRRPVTVPAGIRPQSIYDAIKEVNLAATTDKRTSFYLPLDAIKQLHISSTTTVSEVIQGLLKKFMVVDNPQKFALFKRIHKDGQVLFQKLSIADRPLYLRLLAGPDTEVLSFV
Consider B1, for which the dissociation constant Kd is 421 nM.

The values above are taken from PMC5147862.
